Data as given in patent US20220323445A1, “REDUCING IMMUNOGENICITY TO PEGLOTICASE” (Horizon Therapeutics Ireland DAC, priority 2020, published 2022).

Tested on: serum uric acid (sUA)
Assay: Serum uric acid (sUA) levels and sUA responders, open-label study of pegloticase with MTX (NCT03635957)
Format: in vivo, human
Description: The primary objective is to estimate the response rate during Month 6 (Weeks 20, 22, and 24), as measured by the sustained normalization of serum uric acid (SUA) to <6 mg/dL for at least 80% of the time during Month 6 in subjects receiving KXX with MTX.
The primary efficacy outcome endpoint is the sustained normalization of SUA to <6 mg/dL for at least 80% of the time during month 6 (weeks 20, 22, and 24) in subjects receiving KXX with MTX. This is slightly below the urate solubility threshold and this threshold has been the accepted standard for nearly all modern gout trials. Participants who achieve this endpoint were classified as “responders.” Serum uric acid (SUA) responders may also be defined as participants achieving and maintaining SUA <6 mg/dL for at least 80% of the time during Month 6 (Weeks 20, 22, and 24).
Blood samples may be collected prior to each pegloticase infusion for measurement of SUA levels using the Beckman Coulter AU System Uric Acid procedure. Participants were declared “non-responders” if there were SUA measures >6 mg/dL at 2 consecutive study visits beginning with the week 2 visit. […] If the SUA goal is not maintained before or at the 12-week mark, it was assumed that the participant had developed clinically relevant anti-pegloticase antibody and they received no further infusions. This assumption and subsequent discontinuation of pegloticase was consistent with the protocol of large phase III randomized controlled trials and the product label. A formal stopping rule was 2 occasions of SUA levels of greater than 6 mg/dL.
Clinical Chemistry—Blood samples were collected prior to each pegloticase infusion for measurement of SUA levels (primary efficacy parameter) using the Beckman Coulter AU System Uric Acid procedure. In this procedure uric acid is converted to hydrogen peroxide. Hydrogen peroxide reacts with reagent to produce a chromophore which is read bichromatically at 660/800 nm. The amount of dye formed is proportional to the uric acid concentration in the sample.
Serum samples for measurement of SUA levels were collected at the Screening Visit, the Week −4 Visit (prior to the first dose of MTX), and the Week −2 Visit during the MTX Run-in Period; within 48 hours prior to each pegloticase infusion and after the end of each pegloticase infusion prior to discharge from the site during the Pegloticase+IMM Period; at the non-infusion Week 52/End of Study/Early Termination Visits and at the Post Treatment 3 and 6 Month Follow-up Visits. Additional serum samples for SUA levels were collected at optional non-infusion (Frequent Sampling) Visits at Weeks 1 and 7. […] Subjects with SUA level >6 mg/dL at 2 consecutive visits beginning at Week 2 visit discontinued treatment, completed the End of Pegloticase Infusion Visit procedures within 2 weeks and continued the subject visits according to the protocol (without treatment).
Efficacy analyses were performed using the modified intention-to-treat (mITT) population, defined as all enrolled subjects who received ≥1 dose of pegloticase. The proportion of Month 6 responders was summarized, along with a 95% confidence interval for the proportion. The proportion of Month 3 and overall (Months 3 and 6 combined) responders was analyzed similarly.
A subject was declared a non-responder if the subject had SUA level >6 mg/dL at 2 consecutive study visits beginning with the Week 2 Visit. In addition, a subject who withdraws from study treatment for any reason after the first dose of pegloticase in the KXX+MTX Period and prior to Month 6 (for the primary endpoint) or Month 3 (for the secondary endpoint) was considered a non-responder if SUA values were not collected at the planned time points.
Patients were administered oral MTX (15 mg/week) and folate (1 mg/day) 4 weeks prior to the first pegloticase infusion (Day 1) and throughout the pegloticase treatment period. […]

[1] = Week 34 - Pre-Infusion, Month 6 sUA Responders
[2] = Week 34 - Pre-Infusion, mITT, n=10
[3] = Week 36 - Post-Infusion, Month 6 sUA Responders
[4] = Week 36 - Post-Infusion, mITT, n=6
[5] = Week 36 - Pre-Infusion, Month 6 sUA Responders
[6] = Week 36 - Pre-Infusion, mITT, n=9
[7] = Week 38 - Pre-Infusion, Month 6 sUA Responders
[8] = Week 38 - Pre-Infusion, mITT, n=5
[9] = Week 40 - Pre-Infusion, Month 6 sUA Responders
[10] = Week 40 - Pre-Infusion, mITT, n=3
[11] = Week 42 - Pre-Infusion, Month 6 sUA Responders
[12] = Week 42 - Pre-Infusion, mITT, n=3
[13] = Week 44 - Pre-Infusion, Month 6 sUA Responders
[14] = Week 44 - Pre-Infusion, mITT, n=3
[15] = Week 46 - Pre-Infusion, Month 6 sUA Responders
[16] = Week 46 - Pre-Infusion, mITT, n=2
[17] = Week 48 - Post-Infusion, Month 6 sUA Responders
[18] = Week 48 - Post-Infusion, mITT, n=3
[19] = Week 48 - Pre-Infusion, Month 6 sUA Responders
[20] = Week 48 - Pre-Infusion, mITT, n=2
[21] = Week 50 - Post-Infusion, Month 6 sUA Responders
[22] = Week 50 - Post-Infusion, mITT, n=3
[23] = Week 50 - Pre-Infusion, Month 6 sUA Responders
[24] = Week 50 - Pre-Infusion, mITT, n=2
[25] = Week 52/ET, Month 6 sUA Responders

B1: pegloticase (protein)
chain: TYKKNDEVEFVRTGYGKDMIKVLHIQRDGKYHSIKEVATTVQLTLSSKKDYLHGDNSDVIPTDTIKNTVNVLAKFKGIKSIETFAVTICEHFLSSFKHVIRAQVYVEEVPWKRFEKNGVKHVHAFIYTPTGTHFCEVEQIRNGPPVIHSGIKDLKVLKTTQSGFEGFIKDQFTTLPEVKDRCFATQVYCKWRYHQGRDVDFEATWDTVRSIVLQKFAGPYDKGEYSPSVQKTLYDIQVLTLGQVPEIEDMEISLPNIHYLNIDMSKMGLINKEEVLLPLDNPYGKITGTVKRKLSSRL
modifications: monomethoxy PEG conjugated; Krystexxa Sequence
notes: covalent conjugate of uricase produced by a genetically modified strain of Escherichia coli and monomethoxypoly (ethylene glycol)
[1]
  sUA < 6 mg/dL, %: (100%)
  sUA Change from Baseline, Mean: -8.47 mg/dL
  sUA Change from Baseline, Median: -7.95 mg/dL
  sUA Observed, Mean: 0.82 mg/dL
  sUA Observed, Median: 0.30 mg/dL
[2]
  sUA < 6 mg/dL, n (%): 10 (100%)
  sUA Change from Baseline, Mean (SD): −8.47 (3.248) mg/dL
  sUA Change from Baseline, Median: -7.95 mg/dL
  sUA Observed, Mean (SD): 0.82 (1.046) mg/dL
  sUA Observed, Median: 0.30 mg/dL
[3]
  sUA < 6 mg/dL, %: (100%)
  sUA Change from Baseline, Mean: -9.38 mg/dL
  sUA Change from Baseline, Median: -9.20 mg/dL
  sUA Observed, Mean: 0.30 mg/dL
  sUA Observed, Median: 0.30 mg/dL
[4]
  sUA < 6 mg/dL, n (%): 6 (100%)
  sUA Change from Baseline, Mean (SD): −9.38 (3.799) mg/dL
  sUA Change from Baseline, Median: -9.20 mg/dL
  sUA Observed, Mean (SD): 0.30 (0.000) mg/dL
  sUA Observed, Median: 0.30 mg/dL
[5]
  sUA < 6 mg/dL, %: ( 88.9%)
  sUA Change from Baseline, Mean: -7.90 mg/dL
  sUA Change from Baseline, Median: -8.60 mg/dL
  sUA Observed, Mean: 1.58 mg/dL
  sUA Observed, Median: 0.30 mg/dL
[6]
  sUA < 6 mg/dL, n (%): 8 (88.9%)
  sUA Change from Baseline, Mean (SD): −7.90 (4.094) mg/dL
  sUA Change from Baseline, Median: -8.60 mg/dL
  sUA Observed, Mean (SD): 1.58 (2.425) mg/dL
  sUA Observed, Median: 0.30 mg/dL
[7]
  sUA < 6 mg/dL, %: (100%)
  sUA Change from Baseline, Mean: -8.41 mg/dL
  sUA Change from Baseline, Median: -8.60 mg/dL
  sUA Observed, Mean: 0.93 mg/dL
  sUA Observed, Median: 0.30 mg/dL
[8]
  sUA < 6 mg/dL, n (%): 5 (100%)
  sUA Change from Baseline, Mean (SD): −8.41 (5.229) mg/dL
  sUA Change from Baseline, Median: -8.60 mg/dL
  sUA Observed, Mean (SD): 0.93 (1.583) mg/dL
  sUA Observed, Median: 0.30 mg/dL
[9]
  sUA < 6 mg/dL, %: (100%)
  sUA Change from Baseline, Mean: -11.30 mg/dL
  sUA Change from Baseline, Median: -9.80 mg/dL
  sUA Observed, Mean: 0.30 mg/dL
  sUA Observed, Median: 0.30 mg/dL
[10]
  sUA < 6 mg/dL, n (%): 3 (100%)
  sUA Change from Baseline, Mean (SD): −11.30 (3.686) mg/dL
  sUA Change from Baseline, Median: -9.80 mg/dL
  sUA Observed, Mean (SD): 0.30 (0.000) mg/dL
  sUA Observed, Median: 0.30 mg/dL
[11]
  sUA < 6 mg/dL, %: (100%)
  sUA Change from Baseline, Mean: -11.30 mg/dL
  sUA Change from Baseline, Median: -9.80 mg/dL
  sUA Observed, Mean: 0.30 mg/dL
  sUA Observed, Median: 0.30 mg/dL
[12]
  sUA < 6 mg/dL, n (%): 3 (100%)
  sUA Change from Baseline, Mean (SD): −11.30 (3.686) mg/dL
  sUA Change from Baseline, Median: -9.80 mg/dL
  sUA Observed, Mean (SD): 0.30 (0.000) mg/dL
  sUA Observed, Median: 0.30 mg/dL
[13]
  sUA < 6 mg/dL, %: (100%)
  sUA Change from Baseline, Mean: -10.55 mg/dL
  sUA Change from Baseline, Median: -9.80 mg/dL
  sUA Observed, Mean: 1.05 mg/dL
  sUA Observed, Median: 0.30 mg/dL
[14]
  sUA < 6 mg/dL, n (%): 3 (100%)
  sUA Change from Baseline, Mean (SD): −10.55 (4.625) mg/dL
  sUA Change from Baseline, Median: -9.80 mg/dL
  sUA Observed, Mean (SD): 1.05 (1.305) mg/dL
  sUA Observed, Median: 0.30 mg/dL
[15]
  sUA < 6 mg/dL, %: (100%)
  sUA Change from Baseline, Mean: -12.65 mg/dL
  sUA Change from Baseline, Median: -12.65 mg/dL
  sUA Observed, Mean: 0.30 mg/dL
  sUA Observed, Median: 0.30 mg/dL
[16]
  sUA < 6 mg/dL, n (%): 2 (100%)
  sUA Change from Baseline, Mean (SD): −12.65 (4.031) mg/dL
  sUA Change from Baseline, Median: -12.65 mg/dL
  sUA Observed, Mean (SD): 0.30 (0.000) mg/dL
  sUA Observed, Median: 0.30 mg/dL
[17]
  sUA < 6 mg/dL, %: (100%)
  sUA Change from Baseline, Mean: -10.33 mg/dL
  sUA Change from Baseline, Median: -9.80 mg/dL
  sUA Observed, Mean: 1.60 mg/dL
  sUA Observed, Median: 0.30 mg/dL
[18]
  sUA < 6 mg/dL, n (%): 3 (100%)
  sUA Change from Baseline, Mean (SD): −10.33 (4.922) mg/dL
  sUA Change from Baseline, Median: -9.80 mg/dL
  sUA Observed, Mean (SD): 1.60 (2.252) mg/dL
  sUA Observed, Median: 0.30 mg/dL
[19]
  sUA < 6 mg/dL, %: (100%)
  sUA Change from Baseline, Mean: -12.65 mg/dL
  sUA Change from Baseline, Median: -12.65 mg/dL
  sUA Observed, Mean: 0.30 mg/dL
  sUA Observed, Median: 0.30 mg/dL
[20]
  sUA < 6 mg/dL, n (%): 2 (100%)
  sUA Change from Baseline, Mean (SD): −12.65 (4.031) mg/dL
  sUA Change from Baseline, Median: -12.65 mg/dL
  sUA Observed, Mean (SD): 0.30 (0.000) mg/dL
  sUA Observed, Median: 0.30 mg/dL
[21]
  sUA < 6 mg/dL, %: (100%)
  sUA Change from Baseline, Mean: -10.57 mg/dL
  sUA Change from Baseline, Median: -9.80 mg/dL
  sUA Observed, Mean: 1.37 mg/dL
  sUA Observed, Median: 0.30 mg/dL
[22]
  sUA < 6 mg/dL, n (%): 3 (100%)
  sUA Change from Baseline, Mean (SD): −10.57 (4.598) mg/dL
  sUA Change from Baseline, Median: -9.80 mg/dL
  sUA Observed, Mean (SD): 1.37 (1.848) mg/dL
  sUA Observed, Median: 0.30 mg/dL
[23]
  sUA < 6 mg/dL, %: (100%)
  sUA Change from Baseline, Mean: -12.65 mg/dL
  sUA Change from Baseline, Median: -12.65 mg/dL
  sUA Observed, Mean: 0.30 mg/dL
  sUA Observed, Median: 0.30 mg/dL
[24]
  sUA < 6 mg/dL, n (%): 2 (100%)
  sUA Change from Baseline, Mean (SD): −12.65 (4.031) mg/dL
  sUA Change from Baseline, Median: -12.65 mg/dL
  sUA Observed, Mean (SD): 0.30 (0.000) mg/dL
  sUA Observed, Median: 0.30 mg/dL
[25]
  sUA < 6 mg/dL, %: (100%)
  sUA Change from Baseline, Mean: -12.65 mg/dL
  sUA Change from Baseline, Median: -12.65 mg/dL
  sUA Observed, Mean: 0.30 mg/dL
  sUA Observed, Median: 0.30 mg/dL
Week 52/ET, mITT, n=2
  sUA < 6 mg/dL, n (%): 2 (100%)
  sUA Change from Baseline, Mean (SD): −12.65 (4.031) mg/dL
  sUA Change from Baseline, Median: -12.65 mg/dL
  sUA Observed, Mean (SD): 0.30 (0.000) mg/dL
  sUA Observed, Median: 0.30 mg/dL
